Our source for the stoichiometry N values is publication PMC2765501.

The assay has as its target C22-pT peptide (HIV-1 gp41 MPER residues 662-683 with a C-terminal GCN4-pT isoleucine-zipper motif) (HIV-1). The assay is described as follows: AUC.

In turn, “C22-pT peptide (HIV-1 gp41 MPER residues 662-683 with a C-terminal GCN4-pT isoleucine-zipper motif)” returned a stoichiometry N of 3.

The term stoichiometry N denotes the number of molecules, sites or subunits per partner or assembly.
